Results published in doi:10.1101/2024.07.24.604858 (bioRxiv, 2024).

Key:
[1] = target: T1, PfCSP central repeat peptide NANP_(20aa) (Plasmodium falciparum (repeat peptide, …)); experiment: SPR
T1 chain: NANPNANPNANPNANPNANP

[2] = target: T2, PfCSP N-junction peptide NPDP_(20aa) (Plasmodium falciparum (matches 3D7 …)); experiment: SPR
T2 chain: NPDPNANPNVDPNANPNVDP

B1: mAb 0786 wt (antibody, V domains shown)
VH: EVQLVESGGGLVQPGRSLRLSCTTSGFTFGDFAMSWVRQAPGKGLEWVGFIRSKANGGSTEYAASVKGRFTISRDDSKSIAYLQMDSLKTEDTAVYYCCRVWIQLWPLDYWGQGTLVTVSS
VL: EIVLTQSPGTLSLSPGERATLSCRASQSIGSSYLAWYQLKPGQAPRLLIYGASSRATGIPDRFSGSGSGTDFTLIISRLEPEDFAVYFCQQYGRSPWTFGQGTKVEIK
- binding result [1]: binds
- binding result [2]: binds

B2: mAb 0786 with Arg introduced at H.59 (antibody, V domains shown)
VH: EVQLVESGGGLVQPGRSLRLSCTTSGFTFGDFAMSWVRQAPGKGLEWVGFIRSKANGGRTEYAASVKGRFTISRDDSKSIAYLQMDSLKTEDTAVYYCCRVWIQLWPLDYWGQGTLVTVSS
VL: EIVLTQSPGTLSLSPGERATLSCRASQSIGSSYLAWYQLKPGQAPRLLIYGASSRATGIPDRFSGSGSGTDFTLIISRLEPEDFAVYFCQQYGRSPWTFGQGTKVEIK
- binding result [1]: binds
- binding result [2]: binds

B3: mAb 0786 with H.N56 reverted to the GL Tyr (antibody, V domains shown)
VH: EVQLVESGGGLVQPGRSLRLSCTTSGFTFGDFAMSWVRQAPGKGLEWVGFIRSKAYGGSTEYAASVKGRFTISRDDSKSIAYLQMDSLKTEDTAVYYCCRVWIQLWPLDYWGQGTLVTVSS
VL: EIVLTQSPGTLSLSPGERATLSCRASQSIGSSYLAWYQLKPGQAPRLLIYGASSRATGIPDRFSGSGSGTDFTLIISRLEPEDFAVYFCQQYGRSPWTFGQGTKVEIK
- binding result [1]: binds
- binding result [2]: binds

B4: mAb 0786 with H.A63P (antibody, V domains shown)
VH: EVQLVESGGGLVQPGRSLRLSCTTSGFTFGDFAMSWVRQAPGKGLEWVGFIRSKANGGSTEYPASVKGRFTISRDDSKSIAYLQMDSLKTEDTAVYYCCRVWIQLWPLDYWGQGTLVTVSS
VL: EIVLTQSPGTLSLSPGERATLSCRASQSIGSSYLAWYQLKPGQAPRLLIYGASSRATGIPDRFSGSGSGTDFTLIISRLEPEDFAVYFCQQYGRSPWTFGQGTKVEIK
- binding result [1]: binds
- binding result [2]: binds
